Laboratory results as given in patent US11814439 (TG THERAPEUTICS, dated 2023).

Tests used:
Assay in all cases: cell-based or functional assay
[1] = target: T1, FcγIIIA Receptor on the effector cells (CD16 / FcγRIII) (human, UniProt P08637 17-254)
[2] = target: T1, FcγIIIA Receptor on the effector cells …; remark: listed apart in the source
[3] = target: T1, FcγIIIA Receptor on the effector cells …; remark: listed apart in the source
[4] = target: C1q Receptor in the complement system (rabbit serum as the source of complement) (rabbit)

T1 sequence (P08637 17-254): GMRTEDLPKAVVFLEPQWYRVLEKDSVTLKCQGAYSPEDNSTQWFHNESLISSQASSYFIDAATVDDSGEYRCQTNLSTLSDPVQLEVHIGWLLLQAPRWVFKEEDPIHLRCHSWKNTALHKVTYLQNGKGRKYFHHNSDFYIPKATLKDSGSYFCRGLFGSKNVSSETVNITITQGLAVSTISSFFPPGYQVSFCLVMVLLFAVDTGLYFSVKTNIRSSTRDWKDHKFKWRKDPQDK

B1: TG-1101 (TG Therapeutics, Inc.) (antibody, human IgG1, kappa)
heavy: not shown
light: QIVLSQSPAILSASPGEKVTMTCRASSSVSYMHWYQQKPGSSPKPWIYATSNLASGVPARFSGSGSGTSYSFTISRVEAEDAATYYCQQWTFNPPTFGGGTRLEIKRTVAAPSVFIFPPSDEQLKSGTASVVCLLNNFYPREAKVQWKVDNALQSGNSQESVTEQDSKDSTYSLSSTLTLSKADYEKHKVYACEVTHQGLSSPVTKSFNRGEC
- ADCC EC50, fold lower than OCREVUS [1]: ~25 fold
- ADCC EC50 (Raji target cells, KILR CD16a effector cells) [2]: 0.00242 ng/mL
- EC50 of ADCC assay Using Primary NK Cells [3]: 49000 ng/mL
- CDC EC50 (Jeko-1 cells, rabbit complement) [4]: 670 ng/mL
